Results published in the supplement of paper PMC12338614.
± gives the uncertainty stated by the source.

B1: library; numbered along this chain (parent)
chain: MEVVDPQQLGMFTEGELMSVGMDTFIHRIDSTEVIYQPRRKRAKLIGKYLMGDLLGEGSYGKVKEVLDSETLCRRAVKILKKKKLRRIPNGEANVKKEIQLLRRLRHKNVIQLVDVLYNEEKQKMYMVMEYCVCGMQEMLDSVPEKRFPVCQAHGYFCQLIDGLEYLHSQGIVHKDIKPGNLLLTTGGTLKISDLGVAEALHPFAADDTCRTSQGSPAFQPPEIANGLDTFSGFKVDIWSAGVTLYNITTGLYPFEGDNIYKLFENIGKGSYAIPGDCGPPLSDLLKGMLEYEPAKRFSIRQIRQHSWFRKKHPPAEAPVPIPPSPDTKDRWRSMTVVPYLEDLHGADEDEDLFDIEDDIIYTQDFTVPGQVPEEEASHNGQRRGLPKAVCMNGTEAAQLSTKSRAEGRAPNPARKACSASSKIRRLSACKQQ

Variants of: B1
Assay: STK11 functional score (HeLa growth suppression), rescaled enrichment; synonymous median = 1, nonsense median = 0 (normalised score)
Conditions: with HeLa; variant type: missense
Method: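 Deep mutational scan (TileSeq/POPCode codon randomisation) of full-length codon-optimised STK11 cDNA integrated at a Bxb1 landing pad (AAVS1) in HeLa cells. Restoring functional STK11 suppresses HeLa proliferation. Variant frequencies were measured by NGS before and after about two weeks of growth. The error-corrected enrichment log-ratio was rescaled so that synonymous median = 1 and nonsense median = 0, scores above 1 were compressed, and codon-level and three biological replicate scores were combined; error is the bootstrapped standard error. Scale: synonymous median = 1, nonsense median = 0; below 0.5 = damaging.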
Variant C151Q has an STK11 functional score of 1.54 ± 0.39.
For F231E, the STK11 functional score was 1.24 ± 0.3.
In the case of E130C, the STK11 functional score is reported as 0.373 ± 0.08.
S307G showed an STK11 functional score of 0.664 ± 0.35.
R333H gave an STK11 functional score of 1.05 ± 0.33.
S213F showed an STK11 functional score of 1.35 ± 0.41.
R383W was tested, and the STK11 functional score was 0.781 ± 0.14.
H202G gave an STK11 functional score of 1.3 ± 0.16.
R147S showed an STK11 functional score of 0.855 ± 0.32.
Q170A was tested, and the STK11 functional score was 0.916 ± 0.14.
I260E gave an STK11 functional score of -0.179 ± 0.42.
D208S was tested, and the STK11 functional score was 1.26 ± 0.13.
G10P showed an STK11 functional score of 1.18 ± 0.49.
For G242C, the STK11 functional score was -0.0194 ± 0.091.
Variant V337K has an STK11 functional score of 1.53 ± 0.18.
Work on Y340N yielded an STK11 functional score of 1.03 ± 0.63.
K81Q gave an STK11 functional score of 0.882 ± 0.35.
S216D gave an STK11 functional score of 0.167 ± 0.37.
V197W gave an STK11 functional score of 1.25 ± 0.19.
Y362A showed an STK11 functional score of 1.42 ± 0.26.
Variant L140C has an STK11 functional score of 0.555 ± 0.35.
Work on A198V yielded an STK11 functional score of 1.38 ± 0.19.
Work on L72V yielded an STK11 functional score of 1.16 ± 0.21.
Variant V368S has an STK11 functional score of 1.1 ± 0.19.
T185C was tested, and the STK11 functional score was 1.13 ± 0.22.
Variant L341V has an STK11 functional score of 1.33 ± 0.26.
With T186P the STK11 functional score was 1.52 ± 0.33.
Work on Q220Y yielded an STK11 functional score of 1.33 ± 0.15.
In the case of Q100P, the STK11 functional score is reported as 0.999 ± 0.14.
R211T showed an STK11 functional score of 1.22 ± 0.53.
T328I was tested, and the STK11 functional score was 1.29 ± 0.075.
L183S showed an STK11 functional score of 0.646 ± 0.4.
Q123I gave an STK11 functional score of 0.581 ± 0.083.
D355E showed an STK11 functional score of 1.02 ± 0.47.
Work on S401W yielded an STK11 functional score of 0.786 ± 0.71.
With F204C the STK11 functional score was 0.849 ± 0.29.
I322L was tested, and the STK11 functional score was 0.886 ± 0.078.
In the case of S142T, the STK11 functional score is reported as 1.47 ± 0.18.
L167K was tested, and the STK11 functional score was 0.0279 ± 0.15.
Variant V372P has an STK11 functional score of 1.48 ± 0.24.
Work on A389K yielded an STK11 functional score of 1.61 ± 0.17.
For D343L, the STK11 functional score was 0.93 ± 0.25.
R425L showed an STK11 functional score of 1.4 ± 0.26.
With E70P the STK11 functional score was -0.12 ± 0.11.
Variant V243R has an STK11 functional score of 0.16 ± 0.099.
Variant Y362N has an STK11 functional score of 1.47 ± 0.15.
Work on T250I yielded an STK11 functional score of 1.35 ± 0.2.
Q399I was tested, and the STK11 functional score was 1.05 ± 0.34.
For P339N, the STK11 functional score was 0.366 ± 0.35.
Variant R39Q has an STK11 functional score of 0.277 ± 0.097.
V338Q gave an STK11 functional score of 1.54 ± 0.14.
I224N gave an STK11 functional score of 1.47 ± 0.42.
Variant L282G has an STK11 functional score of 0.43 ± 0.11.
With Y49W the STK11 functional score was 1.01 ± 0.096.
In the case of G61H, the STK11 functional score is reported as 1.41 ± 0.35.
With G381I the STK11 functional score was 1.57 ± 0.22.
In the case of E293F, the STK11 functional score is reported as 1.07 ± 0.11.
Variant V63D has an STK11 functional score of -0.044 ± 0.097.
With G276A the STK11 functional score was 1.41 ± 0.14.
Work on P254H yielded an STK11 functional score of 1.41 ± 0.15.
Work on L285H yielded an STK11 functional score of -0.443 ± 0.1.
Work on R40D yielded an STK11 functional score of 1.68 ± 0.41.
With G135D the STK11 functional score was 1.06 ± 0.37.
N412W showed an STK11 functional score of 0.786 ± 0.18.
For K311T, the STK11 functional score was 1.3 ± 0.18.
Work on C134G yielded an STK11 functional score of 0.564 ± 0.14.
T244I gave an STK11 functional score of 0.627 ± 0.11.
Work on T189I yielded an STK11 functional score of 1.33 ± 0.82.
H306Q was tested, and the STK11 functional score was 0.514 ± 0.21.
Work on P280W yielded an STK11 functional score of 0.665 ± 0.16.
With N90V the STK11 functional score was 1.17 ± 0.3.
For R86A, the STK11 functional score was 1.26 ± 0.17.
Work on L427I yielded an STK11 functional score of 1.36 ± 0.29.
In the case of Q170M, the STK11 functional score is reported as 1.54 ± 0.25.
For N181I, the STK11 functional score was -0.248 ± 0.1.
Variant L184R has an STK11 functional score of 0.329 ± 0.17.
Work on A318C yielded an STK11 functional score of 1.23 ± 0.49.
In the case of T71R, the STK11 functional score is reported as 0.849 ± 0.16.
P222I showed an STK11 functional score of 1.13 ± 0.33.
L105C was tested, and the STK11 functional score was 1.53 ± 0.064.
Work on A200L yielded an STK11 functional score of 0.6 ± 0.26.
Work on R147W yielded an STK11 functional score of 0.777 ± 0.16.
Variant P6V has an STK11 functional score of 1.5 ± 0.15.
With F298V the STK11 functional score was 0.839 ± 0.14.
Work on V77L yielded an STK11 functional score of 1.04 ± 0.22.
In the case of I29V, the STK11 functional score is reported as 1.68 ± 0.14.
For G56S, the STK11 functional score was 0.788 ± 0.12.
For P369D, the STK11 functional score was 1.61 ± 0.15.
Work on A241D yielded an STK11 functional score of 0.383 ± 0.2.
V77T gave an STK11 functional score of 1.57 ± 0.19.
In the case of I35P, the STK11 functional score is reported as 1.69 ± 0.16.
F157V gave an STK11 functional score of -0.0226 ± 0.15.
In the case of E291D, the STK11 functional score is reported as 1.03 ± 0.35.
In the case of P221I, the STK11 functional score is reported as 0.337 ± 0.12.
E396L showed an STK11 functional score of 1.14 ± 0.28.
S69H was tested, and the STK11 functional score was 0.304 ± 0.095.
In the case of L341I, the STK11 functional score is reported as 1.56 ± 0.18.
For Y272F, the STK11 functional score was 1.27 ± 0.13.
In the case of G188S, the STK11 functional score is reported as 1.05 ± 0.37.
Work on I35V yielded an STK11 functional score of 0.925 ± 0.11.
Variant R75K has an STK11 functional score of 1.51 ± 0.44.
K311Y showed an STK11 functional score of 1.06 ± 0.41.
I260A gave an STK11 functional score of 0.468 ± 0.26.
For S69L, the STK11 functional score was 1.24 ± 0.16.
Work on E165R yielded an STK11 functional score of 1.18 ± 0.59.
In the case of Q7P, the STK11 functional score is reported as 0.819 ± 0.22.
Variant Q159I has an STK11 functional score of 0.332 ± 0.27.
Variant G279Q has an STK11 functional score of 1.32 ± 0.16.
For I260L, the STK11 functional score was 1.28 ± 0.27.
For S193F, the STK11 functional score was -0.0251 ± 0.091.
In the case of I224H, the STK11 functional score is reported as 1.46 ± 0.41.
M139D showed an STK11 functional score of -0.172 ± 0.088.
V95N gave an STK11 functional score of 1.6 ± 0.14.
Work on K124H yielded an STK11 functional score of 1.3 ± 0.16.
E98I was tested, and the STK11 functional score was 0.496 ± 0.18.
With R103G the STK11 functional score was 0.667 ± 0.098.
With P281D the STK11 functional score was 1.45 ± 0.3.
Work on R383V yielded an STK11 functional score of 1.25 ± 0.38.
With E357R the STK11 functional score was 1.36 ± 0.17.
P324A gave an STK11 functional score of 1.35 ± 0.15.
Y253C was tested, and the STK11 functional score was 0.457 ± 0.26.
V128N was tested, and the STK11 functional score was 1.28 ± 0.32.
Variant G251C has an STK11 functional score of -0.00733 ± 0.1.
I99L gave an STK11 functional score of 0.855 ± 0.1.
In the case of R409W, the STK11 functional score is reported as 1.42 ± 0.11.
Variant V390G has an STK11 functional score of 1.39 ± 0.32.
For P89G, the STK11 functional score was 0.213 ± 0.086.
With K124Y the STK11 functional score was 1.25 ± 0.086.
For C132K, the STK11 functional score was 1.25 ± 0.49.
In the case of P254L, the STK11 functional score is reported as 0.528 ± 0.12.
K81L showed an STK11 functional score of 1.1 ± 0.13.
L113C was tested, and the STK11 functional score was 1.16 ± 0.54.
H379Y showed an STK11 functional score of 1.39 ± 0.47.
E199P was tested, and the STK11 functional score was 0.87 ± 0.76.
Variant I111P has an STK11 functional score of 1.25 ± 0.36.
With V372H the STK11 functional score was 1.61 ± 0.23.
In the case of L167F, the STK11 functional score is reported as 1.05 ± 0.23.
In the case of G187T, the STK11 functional score is reported as 1.59 ± 0.4.
With L282P the STK11 functional score was 0.541 ± 0.13.
With H202I the STK11 functional score was 1.31 ± 0.21.
F354I gave an STK11 functional score of 1.32 ± 0.16.
In the case of N247Q, the STK11 functional score is reported as 1.17 ± 0.23.
Work on E376K yielded an STK11 functional score of 1.41 ± 0.61.
With Y292S the STK11 functional score was 1.28 ± 0.23.
With L54G the STK11 functional score was 1.22 ± 0.41.
Work on P89I yielded an STK11 functional score of 1.41 ± 0.25.
L245Y was tested, and the STK11 functional score was -0.0275 ± 0.097.
Work on I35F yielded an STK11 functional score of 0.949 ± 0.091.
M18E was tested, and the STK11 functional score was 1.56 ± 0.2.
Variant S271G has an STK11 functional score of 0.976 ± 0.3.
D355V gave an STK11 functional score of 1.14 ± 0.18.
K41Q gave an STK11 functional score of 0.893 ± 0.4.
L400R showed an STK11 functional score of 1.37 ± 0.26.
N109M was tested, and the STK11 functional score was 0.647 ± 0.075.
F219A gave an STK11 functional score of 0.528 ± 0.14.
P315E showed an STK11 functional score of 1.57 ± 0.26.
S404W was tested, and the STK11 functional score was 1.43 ± 0.42.
With P319A the STK11 functional score was 1.37 ± 0.32.
Q220D showed an STK11 functional score of 0.747 ± 0.32.
For I303S, the STK11 functional score was -0.209 ± 0.085.
With G56P the STK11 functional score was 0.136 ± 0.092.
In the case of C134V, the STK11 functional score is reported as 0.604 ± 0.11.
M11S was tested, and the STK11 functional score was 1.33 ± 0.41.
For A273T, the STK11 functional score was 1.46 ± 0.34.
Variant L245Q has an STK11 functional score of 0.383 ± 0.19.
E351Y showed an STK11 functional score of 1.23 ± 0.39.
Q137M gave an STK11 functional score of 1.54 ± 0.059.
